The values that follow come from article PMC4593670.

The target of this assay is F-ATPase from Paracoccus denitrificans (nine core subunits α, β, γ, δ, ε, a, b, b' and c) (Paracoccus denitrificans (strain PD1222)) (UniProt A1B8N8). The experiment in a line: reverse-phase LC-MS of the subunits of the purified complex; subunits of F-ATPase I fractionated by reverse-phase chromatography, online electrospray MS; amounts estimated from peak areas of the ion traces, ζ against the δ-subunit.
Sequence of UniProt A1B8N8 (A1B8N8 whole entry, looked up, stated change not applied, tested part not stated): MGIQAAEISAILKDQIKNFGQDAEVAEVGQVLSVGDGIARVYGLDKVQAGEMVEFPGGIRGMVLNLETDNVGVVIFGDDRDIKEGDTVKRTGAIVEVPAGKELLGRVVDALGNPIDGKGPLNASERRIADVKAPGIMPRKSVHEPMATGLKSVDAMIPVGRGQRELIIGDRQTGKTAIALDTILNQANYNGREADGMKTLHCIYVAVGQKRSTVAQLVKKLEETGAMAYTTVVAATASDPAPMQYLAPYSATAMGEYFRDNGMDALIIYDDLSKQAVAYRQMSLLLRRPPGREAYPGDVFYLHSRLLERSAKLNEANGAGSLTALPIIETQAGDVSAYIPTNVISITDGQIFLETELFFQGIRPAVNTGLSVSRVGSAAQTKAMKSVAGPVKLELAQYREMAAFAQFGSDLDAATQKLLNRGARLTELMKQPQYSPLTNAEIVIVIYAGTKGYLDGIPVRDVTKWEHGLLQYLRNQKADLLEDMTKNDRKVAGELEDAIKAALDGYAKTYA

As for “ζ inhibitor protein of the F-ATPase from Paracoccus denitrificans (natural protein)”, the stoichiometry N (ζ-protein per F-ATPase complex) was 1.
